Source: the supplement of paper PMC10126150
± gives the standard deviation of the averaged measurements.

Tested on: ATP
Assay: switch fluorescence ratio, 500 uM ATP over buffer (Cy3 cluster intensity, sum of 5 cycles each) (fold (ratio)); higher = stronger signal-on switching upon ATP binding; sequences stand for … in TCGTCGGCAGCGTCAGATGTGTATAAGAGACAGTTTTTTTTTTTTTTTTTTTTTTTTT…TC
Settings: aptamer strand: ATP DNA aptamer (quencher-CACCTGGGGGAGTATTGCGGAGGAAGG + anchor), 100 nM annealed; ATP concentration: 500 uM
In short: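 Five buffer/ATP imaging cycles were run on Cy3-labelled switching-strand clusters on a modified Illumina MiSeq flow-cell, with NaOH stripping and re-annealing between cycles. In each cycle, clusters annealed to 100 nM quencher-labelled ATP aptamer were imaged in selection buffer, then after 15 min with 500 uM ATP at 22 °C. Per cluster, the fluorescence ratio is summed target-cycle over summed buffer-cycle Cy3 intensity, averaged per switch-domain sequence. Only clusters within 100-1000 RFU were kept.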
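Note: ATP exposure 15 min at 22 °C before imaging.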

Sequence	switch fluorescence ratio
TTTACGATTG	1.03 ± 0.029
GAGTCGAGGG	0.961 ± 0.017
ATATTTGGCG	1.007 ± 0.0029
TCTCTTCCGT	1.22 ± 0.056
ACTTAGGGGG	1.01 ± 0.024
TGGGAGAAGT	0.983 ± 0.011
GATCGACTGG	1.029 ± 0.0075
CGGTTTTTGC	1.03 ± 0.058
CTTATCAATT	1 ± 0.018
CTGTAGAAGA	1.05 ± 0.032
ACTCAATGCA	1.06 ± 0.045
GTACCTTGAT	1.05 ± 0.015
TTAACTGTTT	0.992 ± 0.019
GGTATAGGGA	1.01 ± 0.026
GGTCGGGTGC	0.971 ± 0.047
GGGTTAATAC	1.29 ± 0.069
GTTAAGGGGT	1.007 ± 0.0026
CCTTGTGTTG	1.01 ± 0.017
TTGGAATTGA	0.992 ± 0.012
CGAAGCTAGG	2.16 ± 0.21
TGGGGCAGGT	0.997 ± 0.051
ATTTTCGCAT	1.19 ± 0.051
TTTTCCTGGA	1.03 ± 0.066

Sequence	switch fluorescence ratio
CCTTAGATTA	1.01 ± 0.031
GATTTAAACA	1.02 ± 0.029
TCGCGTTTGC	1.06 ± 0.054
TAAAAGGTGA	0.99 ± 0.029
AATATTGTCG	0.994 ± 0.034
TTATAGGTTG	0.984 ± 0.02
GAGGCGGCAT	1.04 ± 0.0066
TAAAGCGTTG	0.9656 ± 0.0077
ACTAATCGTG	1.02 ± 0.011
AATCTGATGT	1.18 ± 0.28
CGTATGAAGC	0.972 ± 0.02
CGTTACTTTT	1.02 ± 0.053
GCGGGGATTT	0.996 ± 0.023
TTGTCCCTGC	1.016 ± 0.0054
TAGTGACACG	1.03 ± 0.045
GATTAAGGGC	1.0033 ± 6.6e-05
CGGGACGGGG	0.967 ± 0.022
CGAAACTTGA	1.02 ± 0.038
AGTGTGGGTT	0.979 ± 0.0047
TTTAACGCAT	1.24 ± 0.12
GGGGCAGACT	1.03 ± 0.018
GGGGGGGGTC	0.989 ± 0.034
CTGATAGTTG	1.04 ± 0.0013

Sequence	switch fluorescence ratio
TGTTCTCGGA	1.006 ± 0.0097
CCGAGTTTGT	1.05 ± 0.011
GTTAATTACA	1.026 ± 0.0096
GGGGTTTCCT	1.11 ± 0.16
ATGTGACTGG	0.986 ± 0.044
TAGAAATTTG	0.998 ± 0.03
TTATGCGGAT	1.02 ± 0.015
TTTCGAGTCA	1 ± 0.03
TTTTTGGGAA	0.996 ± 0.029
TGGGTTGAGG	0.997 ± 0.016
ATTCTCGTGG	0.997 ± 0.036
AAGTACGTTG	1.12 ± 0.057
GGTCATAATT	0.986 ± 0.025
GACTTTTCCT	1.3 ± 0.41
TCTCACGGAA	1.68 ± 0.19
GGGACCTTTT	1 ± 0.032
TTGGAGGGCT	0.978 ± 0.0032
AAAGATAGGG	1.01 ± 0.018
CGGATCTTTA	1.01 ± 0.037
AGCATATATG	1.02 ± 0.015
AGGTTATGCA	1.01 ± 0.032
TTATAGACAG	0.997 ± 0.034
TACAGATTTG	1.01 ± 0.037

Sequence	switch fluorescence ratio
TGGGTATAT	1.01 ± 0.011
GCAATTGTTG	1.021 ± 0.01
AGAATCGAGT	1.01 ± 0.025
CGGAGAGATG	1.042 ± 0.0034
GGAAACTAGG	1.016 ± 0.003
TTGGTAGCAA	1.81 ± 0.41
AGGGTACGGG	1.063 ± 0.0037
CGGGCCGACT	1.01 ± 0.039
GGGTCACAAA	0.978 ± 0.01
TGGTACACGT	0.989 ± 0.014
GATCAGTGGC	1.05 ± 0.071
TTCAGGCTGT	0.9811 ± 0.0054
TAGGTGTGTG	0.984 ± 0.024
TTGATTCGT	0.99 ± 0.02
GATTCCATAG	1.06 ± 0.034
CCAATAAATT	0.974 ± 0.018
AATATTGGGG	0.981 ± 0.029
AGGGAGGACT	1.022 ± 0.009
TTTTTTAACT	1 ± 0.046
AGCGAAAAGG	1 ± 0.041
GGTAGCTAAG	1 ± 0.034
CCTTTTTGGG	0.9831 ± 0.0032
GGTAGAGGGA	0.9783 ± 0.0085

Sequence	switch fluorescence ratio
CTCTGAGGGC	1.07 ± 0.057
GAAAATTGAG	1 ± 0.015
TGTCCGCCTG	1.07 ± 0.019
TCTTCACTAA	1 ± 0.052
AACTATGGTC	1.01 ± 0.036
GAATCGGGGG	0.979 ± 0.044
TTCGCGTGTT	1.003 ± 0.0055
TTGCTTGGGC	1.02 ± 0.04
GTTAGTTGGT	0.993 ± 0.017
TTTTGAGCAC	1.16 ± 0.26
ACTGGCGGCG	1 ± 0.012
GGCGGCGGGG	1.03 ± 0.049
TGATATGTGG	1.01 ± 0.038
GCTCCCAGGA	1.92 ± 0.026
GTGTGGAGGG	1.016 ± 0.0016
TCGTGTTTTC	1.03 ± 0.083
TTAGTTTTGG	1.04 ± 0.046
GATTTAAGAG	0.988 ± 0.029
TTCCCTTAAT	1 ± 0.015
TAATTATGGG	1.04 ± 0.056
TTTCGGGTGG	0.979 ± 0.023
TGCTGGCTGG	0.973 ± 0.0016
TAAAACCTAA	1.12 ± 0.25

Sequence	switch fluorescence ratio
CGGTGTGCCT	0.966 ± 0.029
TTCTCGGTTT	1.02 ± 0.025
GTTTTTGTTA	0.991 ± 0.036
TGAAAGATTT	1 ± 0.03
AAACGATTTA	1.018 ± 0.0055
GATATTTCGG	1.011 ± 0.0024
AATTAGGATT	0.99 ± 0.016
TGGCCTTCGT	1.13 ± 0.049
GGGATATATT	0.9914 ± 0.0074
AACCTCACTC	1.49 ± 0.13
TAATCTAGGG	0.985 ± 0.046
TTGTCGGATT	0.991 ± 0.021
AGGATTTATA	0.991 ± 0.086
CTTAGCTATT	1.019 ± 0.0077
GGGCGCGTAT	1.03 ± 0.045
TGTTGTATTT	1.01 ± 0.022
CATCTGCGTT	1.58 ± 0.11
TGTCGTCTTC	0.99 ± 0.016
ACGATGAACG	1.04 ± 0.021
ACGGTGGGGA	1.04 ± 0.036
CAAGGGATTG	0.992 ± 0.0058
GGTTTTACTC	1.0379 ± 0.0006
TGAAGGTTGG	1.02 ± 0.025

Sequence	switch fluorescence ratio
ATAGATGAGT	1.012 ± 0.0048
TTAGTTTAAG	0.999 ± 0.017
CCAGGTAGG	1.24 ± 0.068
TTATGGGGGG	1.01 ± 0.042
GCCGTTTTAC	1.17 ± 0.05
ATAAGTGTTG	0.979 ± 0.017
GGACGACCGG	1.02 ± 0.027
CGGGGTTAAG	0.975 ± 0.025
AAGATACCTG	1.08 ± 0.043
AGGGGCTGCG	0.938 ± 0.029
TAGGAAAAAG	0.975 ± 0.013
TGTTTTAGAA	1.01 ± 0.012
AATATCTGTG	1.01 ± 0.016
TGGAGAGTGT	0.963 ± 0.036
GCTCAATTGG	1.018 ± 0.006
TCATGGGCCG	1.33 ± 0.43
GGATTTTGGG	1.01 ± 0.028
CTTTTAGTGT	0.963 ± 0.032
AAGGGTGTGT	0.961 ± 0.032
